This note sets out measurements from WO2016171242A1 (dated 2016).

The target of test [1] is T1, human EPHB1 without signal sequence, FLAG-tagged, expressed from pFLAG-EPHB1 (human, UniProt P54762 18-984).
T1 construct: not shown: FLAG tag supplied by the vector pFLAG-GW
T1 sequence: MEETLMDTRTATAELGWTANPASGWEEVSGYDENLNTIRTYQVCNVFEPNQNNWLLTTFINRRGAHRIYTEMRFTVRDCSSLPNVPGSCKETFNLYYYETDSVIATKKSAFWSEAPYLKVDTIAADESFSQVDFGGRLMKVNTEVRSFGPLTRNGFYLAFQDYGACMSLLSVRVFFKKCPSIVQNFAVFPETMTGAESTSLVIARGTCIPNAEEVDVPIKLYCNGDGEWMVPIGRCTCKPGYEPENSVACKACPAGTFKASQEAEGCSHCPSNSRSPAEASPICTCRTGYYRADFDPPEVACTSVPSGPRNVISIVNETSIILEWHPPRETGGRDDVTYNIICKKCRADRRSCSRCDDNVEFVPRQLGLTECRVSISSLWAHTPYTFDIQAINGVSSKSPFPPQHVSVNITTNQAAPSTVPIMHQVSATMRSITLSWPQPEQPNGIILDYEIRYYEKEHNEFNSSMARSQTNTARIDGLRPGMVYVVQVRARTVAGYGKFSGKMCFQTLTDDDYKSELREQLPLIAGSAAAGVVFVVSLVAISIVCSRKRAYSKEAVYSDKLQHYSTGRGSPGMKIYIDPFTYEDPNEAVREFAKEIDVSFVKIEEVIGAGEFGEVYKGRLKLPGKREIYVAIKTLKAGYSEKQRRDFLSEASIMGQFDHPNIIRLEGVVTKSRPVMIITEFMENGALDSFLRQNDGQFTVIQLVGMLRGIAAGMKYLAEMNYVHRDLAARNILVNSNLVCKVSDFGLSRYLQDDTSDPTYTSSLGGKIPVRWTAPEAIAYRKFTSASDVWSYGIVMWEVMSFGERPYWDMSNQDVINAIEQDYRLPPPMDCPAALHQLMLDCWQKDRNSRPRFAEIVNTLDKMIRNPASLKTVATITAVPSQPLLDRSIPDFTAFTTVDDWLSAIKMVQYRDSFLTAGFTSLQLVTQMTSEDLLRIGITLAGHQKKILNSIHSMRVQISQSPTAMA
Briefly: flow cytometry on transfected 293F cells.

Test [2] deals with T1, human EPHB1 without signal sequence, …. The experiment in a line: flow cytometry on 293F cells transfected with pFLAG-EPHB1. In general terms: Flow cytometry measures light scatter and fluorescence of single cells or particles in a stream.
The target of test [3] is T2, human EPHA4 without signal sequence, FLAG-tagged, expressed from pFLAG-EPHA4 (human, UniProt P54764 20-986).
T2 construct: also called EPHA4-expressing cells; not shown: FLAG tag supplied by the vector pFLAG-GW
The experiment in a line: immunohistochemistry on formalin-fixed, paraffin-embedded 293F cells transiently expressing EPHA4; antibody at 2.5 μg/mL.

T2 sequence (P54764 20-986): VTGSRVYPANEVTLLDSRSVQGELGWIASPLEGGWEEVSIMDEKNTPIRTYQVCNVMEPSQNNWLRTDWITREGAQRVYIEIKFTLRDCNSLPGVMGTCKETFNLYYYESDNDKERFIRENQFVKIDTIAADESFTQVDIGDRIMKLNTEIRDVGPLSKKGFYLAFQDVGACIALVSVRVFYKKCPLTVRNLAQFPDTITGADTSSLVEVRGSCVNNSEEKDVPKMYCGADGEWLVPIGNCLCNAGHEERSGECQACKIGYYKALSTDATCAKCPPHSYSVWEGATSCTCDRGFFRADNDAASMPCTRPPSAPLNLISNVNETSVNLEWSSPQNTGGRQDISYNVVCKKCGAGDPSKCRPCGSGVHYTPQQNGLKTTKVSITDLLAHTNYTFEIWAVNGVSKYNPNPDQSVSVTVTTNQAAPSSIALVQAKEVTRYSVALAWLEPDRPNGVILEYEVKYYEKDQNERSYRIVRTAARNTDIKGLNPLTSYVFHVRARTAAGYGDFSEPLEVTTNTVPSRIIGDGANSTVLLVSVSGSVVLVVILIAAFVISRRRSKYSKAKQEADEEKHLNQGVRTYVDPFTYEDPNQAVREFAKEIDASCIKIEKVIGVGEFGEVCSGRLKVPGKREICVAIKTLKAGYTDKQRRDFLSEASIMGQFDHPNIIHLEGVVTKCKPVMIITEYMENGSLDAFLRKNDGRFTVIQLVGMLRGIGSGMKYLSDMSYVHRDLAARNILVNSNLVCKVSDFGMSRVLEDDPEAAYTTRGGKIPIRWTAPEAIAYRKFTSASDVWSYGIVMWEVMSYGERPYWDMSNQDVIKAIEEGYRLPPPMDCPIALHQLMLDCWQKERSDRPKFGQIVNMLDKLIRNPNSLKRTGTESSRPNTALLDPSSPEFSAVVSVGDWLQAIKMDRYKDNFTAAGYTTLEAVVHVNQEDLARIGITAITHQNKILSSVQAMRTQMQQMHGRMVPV

B1: mouse anti-human EPHA2 antibody A205 (antibody, V domains shown)
VH: QIQLVQSGPELKKPGETVKISCKASGYTFTDYSMNWVKQAPGKGLKWMGWINTYTGEPTYADDFKGRFAFSLETSASTAYLQINNLKNEDTATYFCASPISLLRLLDYWGQGTTLTVSS
VL: DVVMTQTPLSLPVSLGDQASIPCRSSQSLVHSNGNTYLHWYLQKPGQSPKLLIYKVSNRFSGVPDRFSGSGSGTDFTLKISRVEAEDLGVYFCSQSTHVPWTFGGGTKLEIKR
notes: Mouse monoclonal antibody purified from hybridoma supernatant, isotype IgG2b; also called A205 antibody
Turning to B1, in test [1], the binding result is “no binding”.

B2: mouse anti-human EPHA2 antibody A201 (antibody, V domains shown)
VH: EVQLQQSGAELVKPGASVKLSCTVSGFTFKDTYVHWVKQRPEQGLEWIGRIDPANANTKYDPKFQGKASITADTSSNTAYLQLSSLPSEDTAVYYCAAYGKSAWFAYWGQGTLVTVSA
VL: DIQMTQTTSSLSASLGDRVTISCRASQDIGNYLNWYQQKPDGTVKVLIYYTSRLHSGVPSRFSGSGSGTDYSLTISNLEQEDIATYFCQQGHSLPPTFGGGTKLEIKR
notes: Mouse monoclonal antibody purified from hybridoma supernatant, isotype IgG1; also called A201 antibody
As for B2, the binding result in test [2] and in test [3] was “binds” each time.
